Reference: patent publication US20130266579A1

Legend:
[1] = target: human epidermal growth factor receptor (EGFR) on cells and tissues (human) (UniProt P00533); experiment: in vivo fluorescence imaging
[2] = target: human epidermal growth factor receptor (EGFR) (human) (UniProt P00533); experiment: cell-based or functional assay

## control Human IgG (antibody)
[1]
  fold increase of tumor DL755 signal over 7 days: 3 fold

## Saporin conjugated Y104D/Q111P
[2]
  EC50 for Cell Growth Inhibition (CGI), A431 cells: 0.0024 µg/mL
  EC50 for Cell Growth Inhibition (CGI), Keratinocyte (HEK-N) cells: 0.0225 µg/mL

## Saporin conjugated Y104D
[2]
  EC50 for Cell Growth Inhibition (CGI), Keratinocyte (HEK-N) cells: 0.0158 µg/mL
